Experimental data as given in patent US10472401B2, “Peptides and combination of peptides for use in immunotherapy against ovarian cancer and other cancers” (immatics biotechnologies GmbH, priority 2015, dated 2019).

Biological target: HLA-A*02:01 (Homo sapiens, UniProt P04439, D140Y/D185E/D98H/E176V/E277Q/G131W/G231S/I119V/I121R/I166T/I218V/L300P/L318F/N151K/N90K/P208A/P217A/Q86G/Q94H/R138H/R169H/T345S)
Test: MHC binding assay (UV-ligand exchange, ELISA of stabilized MHC complexes)
Conditions: MHC class I binding score; binding to HLA-A*02:01 ranged by peptide exchange yield (UV-ligand exchange, ELISA)
In short: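 Peptide-MHC complexes made by UV-ligand exchange, cleaving a UV-sensitive placeholder peptide and replacing it with the test peptide. Exchange yield measured by ELISA: streptavidin-captured monomers (diluted 100-fold, 1 h, 37 °C) detected with HRP anti-β2m and TMB, absorbance at 450 nm.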

Row | Substance | Peptide exchange
1 | 568 (TLYDIAHTPGV; listed as Homo sapiens) [compound 568] | ″++++″ (≥75% = ++++)
2 | 458 (SLIDKLYNI; listed as Homo sapiens) [compound 458] | ″++″ (≥20% = ++)
3 | 524 (ALIENLTHQI; listed as Homo sapiens) [compound 524] | ″++″ (≥20% = ++)
4 | 263 (LLVSNLDFGV; listed as Homo sapiens) [compound 263] | ″+++″ (≥50% = +++)
5 | 426 (RLADKSVLV; listed as Homo sapiens) [compound 426] | ″+++″ (≥50% = +++)
6 | 97 (SLINGSFLV; listed as Homo sapiens) [compound 97] | ″+++″ (≥50% = +++)
7 | 216 (NLWEDPYYL; listed as Homo sapiens) [compound 216] | ″+++″ (≥50% = +++)
8 | 313 (VLFDDELLMV; listed as Homo sapiens) [compound 313] | ″+++″ (≥50% = +++)
9 | 465 (QLCDLNAEL; listed as Homo sapiens) [compound 465] | ″+++″ (≥50% = +++)
10 | 163 (ALDEMGDLLQL; listed as Homo sapiens) [compound 163] | ″+++″ (≥50% = +++)
11 | 571 (LLLTTIPQI; listed as Homo sapiens) [compound 571] | ″+++″ (≥50% = +++)
12 | 67 (TLLAEALVTV; listed as Homo sapiens) [compound 67] | ″+++″ (≥50% = +++)
13 | 9 (GAAKDLPGV; listed as Homo sapiens) [compound 9] | ″++″ (≥20% = ++)
14 | 155 (RVANLHFPSV; listed as Homo sapiens) [compound 155] | ″+++″ (≥50% = +++)
15 | 526 (RLAEVGQYEQV; listed as Homo sapiens) [compound 526] | ″++″ (≥20% = ++)
16 | 358 (ALDEYTSEL; listed as Homo sapiens) [compound 358] | ″++++″ (≥75% = ++++)

Row | Substance | Peptide exchange
17 | 99 (ALVSKGLATV; listed as Homo sapiens) [compound 99] | ″++″ (≥20% = ++)
18 | 563 (WLLPYNGVTV; listed as Homo sapiens) [compound 563] | ″+++″ (≥50% = +++)
19 | 127 (KIGDEPPKV; listed as Homo sapiens) [compound 127] | ″++″ (≥20% = ++)
20 | 275 (YLVYILNEL; listed as Homo sapiens) [compound 275] | ″++″ (≥20% = ++)
21 | 586 (KLKPGDLVGV; listed as Homo sapiens) [compound 586] | ″+++″ (≥50% = +++)
22 | 596 (ALLDQTKTLAESAL; listed as Homo sapiens) [compound 596] | ″+++″ (≥50% = +++)
23 | 516 (AVGPASILKEV; listed as Homo sapiens) [compound 516] | ″++″ (≥20% = ++)
24 | 21 (VLDELDMEL; listed as Homo sapiens) [compound 21] | ″++″ (≥20% = ++)
25 | 595 (VLLSIYPRV; listed as Homo sapiens) [compound 595] | ″+++″ (≥50% = +++)
26 | 389 (LLADVTHLL; listed as Homo sapiens) [compound 389] | ″++″ (≥20% = ++)
27 | 173 (LLDSASAGLYL; listed as Homo sapiens) [compound 173] | ″+++″ (≥50% = +++)
28 | 17 (GLLPGDRLVSV; listed as Homo sapiens) [compound 17] | ″+++″ (≥50% = +++)
29 | 353 (YLFEMDSSL; listed as Homo sapiens) [compound 353] | ″++″ (≥20% = ++)
30 | 459 (ALITEVVRL; listed as Homo sapiens) [compound 459] | ″++″ (≥20% = ++)
31 | 538 (LLLAHIIAL; listed as Homo sapiens) [compound 538] | ″++″ (≥20% = ++)
32 | 177 (YLLPEEYTSTL; listed as Homo sapiens) [compound 177] | ″++++″ (≥75% = ++++)
